From paper PMC4287840 come the findings set out here.

Series [1] has as its target T1, angiopoietin-2 (Ang2) (human, UniProt O15123 19-496). In words: bead-based fluorescence assay.
The target of series [2] is T1, angiopoietin-2 (Ang2). In words: bead-based fluorescence assay. The source holds these as a separate data set.
The target in series [3] is T1, angiopoietin-2 (Ang2). In words: bead-based fluorescence assay. This is another data set of the same source.
Series [4] deals with T1, angiopoietin-2 (Ang2). The series can be described thus: ELONA sandwich.

T1 sequence (O15123 19-496): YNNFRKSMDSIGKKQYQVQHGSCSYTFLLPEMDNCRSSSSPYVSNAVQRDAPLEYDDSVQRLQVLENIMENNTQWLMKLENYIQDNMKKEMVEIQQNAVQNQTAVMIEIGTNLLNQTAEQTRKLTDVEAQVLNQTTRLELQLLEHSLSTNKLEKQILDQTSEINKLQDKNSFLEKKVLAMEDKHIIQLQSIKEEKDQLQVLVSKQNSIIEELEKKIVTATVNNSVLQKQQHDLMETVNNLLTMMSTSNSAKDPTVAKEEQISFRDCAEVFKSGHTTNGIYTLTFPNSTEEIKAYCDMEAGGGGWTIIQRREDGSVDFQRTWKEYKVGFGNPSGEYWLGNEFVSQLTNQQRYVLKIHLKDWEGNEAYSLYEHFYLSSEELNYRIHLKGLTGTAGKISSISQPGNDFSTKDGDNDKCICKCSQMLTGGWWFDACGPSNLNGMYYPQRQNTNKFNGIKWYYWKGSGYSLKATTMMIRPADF

B1: ABA1 (ssDNA)
DNA: ACTTGTAGGGTTCGGCTGGTCAGGGTGTCCAAGTCTGTGG
B1: the binding signal with angiopoietin-2 (Ang2) [1] was ~210 fold higher Kd than ABA1-ABA65 (97 pM).

B2: ABA92 (ssDNA)
DNA: GGTGCCATTGGGGACTGCTCGGGATTGCGGACTTGGCATC
For the molecule B2, the binding result with angiopoietin-2 (Ang2) [2] is “binds”.

B3: 25T linker (ssDNA)
DNA: TTTTTTTTTTTTTTTTTTTTTTTTT
B3 came in with a Kd with angiopoietin-2 (Ang2) [3] of 210 ± 49.4 nM.

B4: ABA109 (ssDNA)
DNA: GGGTGCCATTGGGGACTGCTCGGGATTGCGGACTTGGCAT
On to B4, for which the binding result with angiopoietin-2 (Ang2) [2] was “binds”.

B5: ABA65 (ssDNA)
DNA: TTTGGGGTGGTTGGGGGTTGTTGTTTTGGGGGTGGAGGGT
For the molecule B5, in the series with angiopoietin-2 (Ang2) [4], the binding result is “binds”.
